Changes are numbered by the printed parent chain.
B1: AHP30826 (antibody, V domains shown)
VH: QVQLQQSGGGSVQAGGSLRLSCAASGTILSINAMGWYRQAPGKQRELVATITTGGNANYAHSVKGRFTISRDNAKNTVYLQMNNLKPEDTAVYYCNAEQVVVGFLQAYDVWGQGTTVTVSS
VL: DVVMTQSPLSLPVTLGQAASISCRSSQSLVHGDGNTYLNWIQQRPGQSPRRLIYKVSNRDSGVPDRFSGSGSGTDFTLKISRVEAEDVGVYYCMQGTHWPSTFGPGTKVDIK
B2: AHP29153 (antibody, V domains shown)
VH: QLQQVESGGGLVQPGGSLRLSCAASRNIGILSTMGWYRQAPGKQRELVATITRGGSTNYGEFVKGRFTISRDNAKNTVYLQMNSLKPEDTAVYYCNVDESWLGTQSYWGRGTTVTVSS
VL: QSVLTQPASVSGSPGQSITISCTGTSSDVGGYKYVSWYQQPPGKAPKLIIYEVTKRPSGVPDRFSGSKSGNTASLTVSGLQAEDEADYYCLSYAGSNNVFGTGTKLTVL
B3: AHP32913 (antibody, V domains shown)
VH: B2 VH with L2V, Q4L, V5M, E6Q, T113Q
VL: QAVVTQEPSLTVSPGGTVTLTCGSSTGPVTSGHYPHWYQQKPGQAPKTLIFDTSHKHPWTPAQFSGSLLGGKAALTLSGAHPEDEAEYYCLLSYSGVRVFGGGTQLIIL
B4: AHP32982 (antibody, V domains shown)
VH: B2 VH with L2V, Q4L, E6Q, T112P, T113L
VL: DIVMTQSPSSVSASVGDRVTITCRASQGISSWLAWYQQKPGKAPKLLIYAASSLQSGVPSRFSGSGSGTDFTLTISSLQPEDFATYYCQQANSFPLTFGGGTKVEIK
B5: AHP31548 (antibody, V domains shown)
VH: B2 VH with L2V, Q4L, V5M, E6Q
VL: QSALTQPPSASGSPGQSVTISCTGTSSDIGTYNFVSWYQQHPGKAPKLIIYEVSKRPSGVPDRFSGSKSGNTASLTVSGLQAEDEADYYCKSYPRVFGTGTKLTAL
B6: AHP33007 (antibody, V domains shown)
VH: B2 VH with L2V, Q4L, E6Q, T112P, T113L
VL: not shown
B7: AHP32919 (antibody, V domains shown)
VH: QVQLQESGGGVVQPGGSLRLSCAASQSIGLLSTMGWYRQAAGKQRELVATITRGGSTNYGEFVKGRFTISRDNAKNTVYLQMNSLKPEDTAVYYCTADESWLGTQSYWGRGTRVTVSS
VL: QAGLTQPPSASGTPGQGVTISCSGSSSNIGSNSVNWYQQLPGTAPKLLMHSNNERSSGVPDRFSGSKSGSSASLAISGLQSEDAADYFCGAWDDSLNGYVFGTGTKLTVL
B8: AHP33029 (antibody, V domains shown)
VH: B7 VH with Q5V, E6D, V11L, P14S, S21T, R113L
VL: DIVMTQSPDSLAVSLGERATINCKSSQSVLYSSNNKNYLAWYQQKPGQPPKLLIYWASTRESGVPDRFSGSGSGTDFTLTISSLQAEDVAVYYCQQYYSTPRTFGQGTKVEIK

molecular target: T1, human Claudin 18.2 expressed on cells (HEK293/human Claudin 18.2; CHO-K1/human Claudin 18.2) (human, UniProt P56856-2 1-261); assay: flow cytometry on HEK293 cells expressing human Claudin 18.2
T1 construct: whole, on cells

| Binder | EC50 |
| --- | --- |
| B1 | 3.54 nM |
| B2 | 8.15 nM |
| B3 | 4.16 nM |
| B4 | 5.91 nM |
| B5 | 3.08 nM |
| B6 | 12.4 nM |
| B7 | 6.04 nM |
| B8 | 4.24 nM |

molecular target: T2, recombinant human Claudin 18.2 protein (GenScript, Z03504) (human, UniProt P56856-2 1-261, limits assumed); assay: competition ELISA on coated recombinant human Claudin 18.2; competitor biotinylated IMAB362 (0.72 µg/ml)
T2 construct: Bought recombinant protein

| Binder | IC50 |
| --- | --- |
| B1 | 0.276 nM |
| B2 | 0.323 nM |
| B3 | 0.337 nM |
| B4 | 0.491 nM |
| B5 | 0.265 nM |
| B6 | 0.805 nM |
| B7 | 0.271 nM |
| B8 | 0.319 nM |

molecular target: T2, recombinant human Claudin 18.2 protein …; assay: SPR Biacore 8K, antibody captured via Fc, human Claudin 18.2 protein as analyte

| Binder | Kd |
| --- | --- |
| B1 | 7.82 nM |
| B2 | 9.96 nM |
| B3 | 9.44 nM |
| B4 | 13.3 nM |
| B5 | 7.31 nM |
| B6 | 2.7 nM |
| B7 | 7.91 nM |
| B8 | 10.2 nM |

molecular target: T2, recombinant human Claudin 18.2 protein …; assay: indirect ELISA, plate coated with recombinant human Claudin 18.2, anti-human IgG Fc-HRP detection

| Binder | EC50 |
| --- | --- |
| B1 | 0.0914 nM |
| B2 | 0.125 nM |
| B3 | 0.111 nM |
| B4 | 0.119 nM |
| B5 | 0.074 nM |
| B6 | 0.139 nM |
| B7 | 0.0788 nM |
| B8 | 0.0746 nM |

molecular target: T1, human Claudin 18.2 expressed on cells …; assay: cell-based or functional assay

| Binder | ADCC reporter gene assay (CHO-K1/Claudin 18.2 target cells, GS-J2C/CD16A 158V effector cells): EC50 | ADCC reporter gene assay (CHO-K1/Claudin 18.2 target cells, GS-J2C/CD16A 158V effector cells): Top |
| --- | --- | --- |
| B1 | 0.684 nM | 222000 |
| B2 | 0.805 nM | 283000 |
| B3 | 8.12 nM | 486000 |
| B4 | 0.379 nM | 216000 |
| B5 | 2.15 nM | 463000 |
| B6 | 1.84 nM | 295000 |
| B7 | ~0.439 nM | 199000 |
| B8 | 3.73 nM | 358000 |

molecular target: T1, human Claudin 18.2 expressed on cells …; assay: cell-based or functional assay; remark: another data set of the same source

| Binder | CDC on CHO-K1/human Claudin 18.2 cells: Top |
| --- | --- |
| B1 | 96% |
| B2 | 96.3% |
| B3 | 93% |
| B4 | 95.5% |
| B5 | 94% |
| B6 | 92.7% |
| B7 | 96.3% |
| B8 | 96.9% |

Source: patent EP4786493A1 (Nanjing Probio Biotech Co., Ltd., dated 2026)
